Data from the supplement of paper PMC9112550, “Optimization of the antimicrobial peptide Bac7 by deep mutational scanning” (BMC Biology, 2022).

test system: Escherichia coli TOP10; assay: shrunken log2 fold change of peptide-encoding DNA abundance (4.5 h post-induction vs induction); higher = less antimicrobial activity (less host growth inhibition); conditions: time post-induction: 4.5 h; library: site-saturation at positions 5, 18, 19, 20
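Further: peptides expressed intracellularly from a pBAD plasmid library in pooled LB shake-flask culture, induced with 0.3% L-arabinose, DNA abundance read by NGS, three biological replicates, DESeq2 with apeglm shrinkage.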

Row | Sequence | shrunken log2 fold change
1 | RRIRERPPRLPRPRPRPWYAPRP | -0.137
2 | RRIRARPPRLPRPRPRPCSSPRP | 0.0291
3 | RRIRHRPPRLPRPRPRPDWQPRP | 0.00196
4 | RRIRIRPPRLPRPRPRPLHSPRP | -0.402
5 | RRIRYRPPRLPRPRPRPSLKPRP | -0.316
6 | RRIRRRPPRLPRPRPRPNVSPRP | 0.137
7 | RRIRARPPRLPRPRPRPWYRPRP | -0.099
8 | RRIRERPPRLPRPRPRPHYQPRP | -0.267
9 | RRIRLRPPRLPRPRPRPDGYPRP | 0.0385
10 | RRIRLRPPRLPRPRPRPLKVPRP | -0.0503
11 | RRIRERPPRLPRPRPRPSMRPRP | 0.353
12 | RRIRYRPPRLPRPRPRPRKGPRP | -0.013
13 | RRIRTRPPRLPRPRPRPCTFPRP | -0.241
14 | RRIRRRPPRLPRPRPRPTAKPRP | 0.371
15 | RRIRFRPPRLPRPRPRPRHMPRP | -0.124
16 | RRIRFRPPRLPRPRPRPPPVPRP | 1.43
17 | RRIRERPPRLPRPRPRPNCSPRP | -0.202
18 | RRIRHRPPRLPRPRPRPNCKPRP | -0.211
19 | RRIRDRPPRLPRPRPRPAWVPRP | 0.103
20 | RRIRCRPPRLPRPRPRPQQLPRP | -0.054
21 | RRIRPRPPRLPRPRPRPECEPRP | 0.291
22 | RRIRQRPPRLPRPRPRPCVEPRP | -0.206
23 | RRIRHRPPRLPRPRPRPSSTPRP | -0.741
24 | RRIRTRPPRLPRPRPRPMMRPRP | 0.933
25 | RRIRERPPRLPRPRPRPNQYPRP | -0.674

Row | Sequence | shrunken log2 fold change
26 | RRIRRRPPRLPRPRPRPISQPRP | -0.395
27 | RRIRTRPPRLPRPRPRPMEFPRP | -0.0956
28 | RRIRDRPPRLPRPRPRPQEKPRP | 0.0105
29 | RRIRERPPRLPRPRPRPVKMPRP | -0.0989
30 | RRIRVRPPRLPRPRPRPAWDPRP | 0.258
31 | RRIRVRPPRLPRPRPRPRIEPRP | 0.314
32 | RRIRERPPRLPRPRPRPQHLPRP | 0.0167
33 | RRIRIRPPRLPRPRPRPMVYPRP | -0.136
34 | RRIRRRPPRLPRPRPRPTNRPRP | 0.282
35 | RRIRIRPPRLPRPRPRPEALPRP | 0.00934
36 | RRIRCRPPRLPRPRPRPENVPRP | -0.0137
37 | RRIRDRPPRLPRPRPRPMPLPRP | -0.0224
38 | RRIRYRPPRLPRPRPRPVHFPRP | -0.451
39 | RRIRNRPPRLPRPRPRPDSFPRP | -0.0232
40 | RRIRKRPPRLPRPRPRPRTRPRP | 0.618
41 | RRIRSRPPRLPRPRPRPSETPRP | -0.44
42 | RRIRDRPPRLPRPRPRPNFDPRP | -0.0173
43 | RRIRGRPPRLPRPRPRPQMCPRP | 0.522
44 | RRIRYRPPRLPRPRPRPEPAPRP | 0.168
45 | RRIRPRPPRLPRPRPRPSLVPRP | -0.222
46 | RRIRWRPPRLPRPRPRPCPDPRP | 0.111
47 | RRIRIRPPRLPRPRPRPMGTPRP | -0.0384
48 | RRIRTRPPRLPRPRPRPCYAPRP | -0.215
49 | RRIRMRPPRLPRPRPRPFWAPRP | 0.509
50 | RRIRLRPPRLPRPRPRPWATPRP | -0.0496

Row | Sequence | shrunken log2 fold change
51 | RRIRARPPRLPRPRPRPWTWPRP | -0.327
52 | RRIRCRPPRLPRPRPRPKENPRP | 0.192
53 | RRIRVRPPRLPRPRPRPDNDPRP | -0.232
54 | RRIRTRPPRLPRPRPRPPQVPRP | -0.0388
55 | RRIRCRPPRLPRPRPRPAVTPRP | 0.0305
56 | RRIRERPPRLPRPRPRPPIMPRP | -0.314
57 | RRIRGRPPRLPRPRPRPCLRPRP | 0.459
58 | RRIRWRPPRLPRPRPRPYQEPRP | -0.0609
59 | RRIRSRPPRLPRPRPRPNTWPRP | -0.637
60 | RRIRLRPPRLPRPRPRPMHQPRP | 0.136
61 | RRIRRRPPRLPRPRPRPFCDPRP | -0.0358
62 | RRIRMRPPRLPRPRPRPSFRPRP | 0.142
63 | RRIRVRPPRLPRPRPRPCDTPRP | 0.0884
64 | RRIRHRPPRLPRPRPRPNQNPRP | -0.285
65 | RRIRDRPPRLPRPRPRPMEHPRP | 0.208
66 | RRIRQRPPRLPRPRPRPGPPPRP | 0.462
67 | RRIRERPPRLPRPRPRPHRRPRP | 0.0407
68 | RRIRERPPRLPRPRPRPQWKPRP | -0.0957
69 | RRIRERPPRLPRPRPRPPMWPRP | 0.245
70 | RRIRLRPPRLPRPRPRPIFGPRP | 0.0171
71 | RRIRIRPPRLPRPRPRPFSDPRP | -0.227
72 | RRIRYRPPRLPRPRPRPSFKPRP | -0.806
73 | RRIRPRPPRLPRPRPRPCRQPRP | 0.111
74 | RRIRQRPPRLPRPRPRPTMVPRP | -0.148
75 | RRIRKRPPRLPRPRPRPGYCPRP | -0.275
